Laboratory results from patent publication US20240352445A1 (published 2024).
Where a chain is given by its changes, count along the chain named. Where two headings read alike, the source gives them in different places.

B1: rabbit monoclonal antibody C-A11 (antibody, V domains shown)
VH: QSLEESGGRLVTPGTPLTLTCTVSGFSLSTYAMSWVRQAPGKGLEWIGVIASNADTYYASWAKGRITISKTSTTVDLKITSPTTEDTATYFCARHPGSAGYGYAVYYAMDPWGPGTLVTVSS
VL: AIEMTQSPSSLAASVGDTVTITCKASEDIRYGLNWYQQKLGIAPKLLIYGANTLEAGVPSRFSGSGSETDYTLTISSVQAEDAGIYYCQQGYSTPLTFGAGTKVEIK
B2: LxA3-E4 (antibody, V domains shown)
VH: EVQLVESGGGLVQPGGSLRLSCEASGFTFPNQAMTWVRQAPGKGLEWIGVIASNADTYYASWAKGRFTISRDNSKNTLYLQMNSLRAEDTAVYYCARHPGSAGYGYGHYYAMDPWGQGTLVTVSS
VL: DIQMTQSPSSLSASVGDRVTITCQASENIRYAINWYQQKPGKAPKLLIYGATYRDEGVPSRFSGSGSGTDYTLTISSLQPEDFATYYCQQGYVVPNSFGGGTKVEIK
B3: LxA3-B11 (antibody, V domains shown)
VH: B2 VH
VL: DIQMTQSPSSLSASVGDRVTITCLASEQAHYAINWYQQKPGKAPKLLIYGTSLLAEGVPSRFSGSGSGTDFTLTISSLQPEDFATYYCQQGYIVPISFGGGTKVEIK
B4: humanized antibody hN2Y (antibody, V domains shown)
VH: B2 VH with E23T, A24V, T28S, F29L, P30S, N31T, Q32Y, T35S, G107A, H108V
VL: DIQMTQSPSSLSASVGDRVTITCKASEDIRYGLNWYQQKPGKAPKLLIYGANTLEAGVPSRFSGSGSGTDYTLTISSLQPEDFATYYCQQGYSTPLTFGGGTKVEIK
B5: humanized antibody hN2F (antibody, V domains shown)
VH: B2 VH with E23T, A24V, T28S, F29L, P30S, N31T, Q32Y, T35S, G107A, H108V
VL: B4 VL with Y71F

How the values were obtained:
[1] = target: T1, SARS-CoV-2 spike protein trimer, Omicron (B.1.1.529) variant (SARS-CoV-2, UniProt P0DTC2 16-1213); assay: flow
[2] = target: SARS-CoV-2 spike protein trimer, Kappa (B.1.617.1) variant (SARS-CoV-2, UniProt P0DTC2 16-1213)
[3] = target: SARS-CoV-2 spike protein trimer, Epsilon (B.1.429) variant (SARS-CoV-2, UniProt P0DTC2 16-1213)
[4] = target: SARS-CoV-2 spike protein trimer, Alpha (B.1.1.7) variant (SARS-CoV-2, UniProt P0DTC2 16-1213)
[5] = target: T2, SARS-CoV-2 spike protein trimer, Beta (B.1.351) variant (SARS-CoV-2, UniProt P0DTC2 16-1213)
[6] = target: SARS-CoV-2 spike protein trimer, Gamma (P.1) variant (SARS-CoV-2, UniProt P0DTC2 16-1213)
[7] = target: T2, SARS-CoV-2 spike protein trimer, Beta …; assay: BLI
[8] = target: T2, SARS-CoV-2 spike protein trimer, Beta …; assay: BLI; remark: listed apart in the source
[9] = target: T1, SARS-CoV-2 spike protein trimer, …; assay: BLI
[10] = target: T1, SARS-CoV-2 spike protein trimer, …; assay: BLI; remark: listed apart in the source
[11] = target: T1, SARS-CoV-2 spike protein trimer, …; assay: ELISA
[12] = target: SARS-CoV-2 spike protein trimer, Omicron (BA.2) variant (SARS-CoV-2, UniProt P0DTC2 16-1213); assay: ELISA
[13] = target: SARS-CoV-2 spike protein trimer, Delta (B.1.617.2) variant (SARS-CoV-2, UniProt P0DTC2 16-1213); assay: ELISA
[14] = target: T1, SARS-CoV-2 spike protein trimer, …; assay: BLI; remark: listed apart in the source

Row | Binder | IC50 [1] [mg/L] | IC50 [2] [mg/L] | IC50 [3] [mg/L] | IC50 [4] [mg/L] | IC50 [5] [mg/L] | IC50 [6] [mg/L] | Kd [7] [nM] | Kd [8] [nM] | Kd [9] [nM] | Kd [10] [nM] | IC50 [11] [mg/L] | IC50 [12] [mg/L] | IC50 [13] [mg/L] | Kd [14] [nM]
1 | B1 | > 0.5 | 0.0141 | 0.00314 | 0.0495 | 0.0218 | 0.0548 | 0.0404 | 0.0404 | – | – | – | – | – | –
2 | B2 | – | – | – | – | – | – | – | – | < 0.001 | – | – | – | – | –
3 | B3 | – | – | – | – | – | – | – | – | 0.0449 | – | – | – | – | –
4 | B4 | – | 0.0117 | 0.0184 | 0.0704 | 0.0347 | 0.0588 | 0.193 | 0.193 | – | 0.123 | 0.44 | 0.159 | 0.00419 | 0.123
5 | B5 | > 0.5 | 0.0589 | 0.0101 | 0.0561 | 1.29 | 2.18 | – | – | – | – | – | – | – | –
